{"source": "paper PMC5000598", "key": {"[1]": {"target": "LZ-EGFR-GFP (chimeric EGFR with the extracellular domain replaced by the c-Fos leucine zipper, GFP at the C-terminus) (UniProt P01100)", "experiment": "SDS-resistant dimer on SDS-PAGE immunoblot; total Triton X-100 lysates of transfected 293T cells boiled in SDS-loading buffer with beta-mercaptoethanol, no cross-linker; immunoblot with anti-pEGFR antibodies"}, "[2]": {"target": "LZ-EGFR-GFP (chimeric EGFR with the extracellular domain replaced by the c-Fos leucine zipper, GFP at the C-terminus) (UniProt P01100)", "experiment": "cross-linking; homogenates of transiently transfected 293T cells in PBS, 6 mM DSS, 30 min at room temperature, quenched with 250 mM glycine; membrane pellet lysed, SDS-PAGE, immunoblot with anti-EGFR and anti-GFP; EGFR-GFP cells stimulated with EGF (100 ng/mL, 30 min)"}}, "data": [{"substance": "LZ-EGFR-GFP (chimeric EGFR with the extracellular domain replaced by the c-Fos leucine zipper, GFP at the C-terminus) (from UniProt P01100 160-200; P00533 623-1210) (receptor)", "values": [{"measurement": "stoichiometry N", "setting": "[1]", "value": 2}, {"measurement": "stoichiometry N", "setting": "[2]", "value": 2}]}]}
